Laboratory results: the DeepSol protein solubility set

Assay: soluble on expression in E. coli; label from the status in PepcDB or PDB records

Row | Sequence | soluble on expression in E. coli
1 | GSEDINRNPLLPTKEDEKMDGVIYGAYLPNLEKSVIPIGTASESTEPVNRYQIGVNLAGDAWAGYMSPRDNKFNGSKNFTNYFMYENWVNYVYSFMVTDVYSPWMQIKRISQDEGTRNDEIYALAQIIKIAALHRTTDMFGPIPYSQVGKGSFKVAYDSQESVYRSFLKELEEAVQTLDDYSNKSKEVLPAFDIVYNGDVNKWMRFANSLMLRLAIRVRFADAGLAKEYAEKAVKHPAGLINSKELAAQMGKGAGLQMKNPLKVINEEYNDTRMGATIYSYLAGYNDARAAVYFVKNNGFKAVRCGIAKSGDAYNGFTRPNVHEDDPLYWMKASEVCFLKAEGALAGFDMGGSAGDFYNAGIRMSFSENGLDNSSAETYLKDSTRKPANYTDTSNGELSANAPSSITIRWENGATEEEKLERIITQKYLAIFPNGQEAWTEWRRTGYPRQIVVAENKTNSAVLIGNGYDLGGVRRLPYPRTEYEQNGENLHNAISQYLGGVDNAATKVWWDKKSK | soluble
2 | GSHMAEDEPFSGAKKLRHLLENTDELIVCPGVYDGLSARTAMELGFKSLYMTGAGTTASRLGQPDLAIAQLHDMRDNADMIANLDPFGPPLIADMDTGYGGPIMVARTVEHYIRSGVAGAHLEDQILTKRCGHLSGKKVVSRDEYLVRIRAAVATKRRLRSDFVLIARTDALQSLGYEECIERLRAARDEGADVGLLEGFRSKEQAAAAVAALAPWPLLLNSVENGHSPLITVEEAKAMGFRIMIFSFATLAPAYAAIRETLVRLRDHGVVGTPDGITPVRLFEVCGLQDAMEVDNGAGGKAFSEGV | soluble
3 | GSHMASEKVAVETSVYLSELEWKSASTGYGEIQKDASCDGNTITLKGENGEKVSYDKGIGTHAHSEIVYSLEGLDYYDYFETFVGVDQEMAGTVASISFEVYLDNEKVFDSGLMTGDTTQKHVKVPIAGKNTLKLVVKDGGDSIGSDHGSFGDAKLT | soluble
4 | GSHMASMTGGQQMGRGSEFRSMTAIEDILQITTDPSDTRGYSLLKSEEVPQGSTLGVDFIDTLLLYQLTENEKLDKPFEYLNDCFRRNQQQKRITKNKPNAESLHSTFQEIDRLVIGYGVVALQIENFCMNGAFINYITGIVSNVNSYTDFLSQIIQRAILEGTALDLLNAVFPTLLEYCNKHVSHFDLNESVIYNNVLTIFELFVTFKPIAEIFTKIDGFFADYSCKPQDFERKTILGPILSLSPIEAAVAIRNYGDNLLRSKQQTAMIHESLQAEHKVVIDRLFFIVDKLVRGSLNSRTDMISYFAHIANKNHLRRADHPPFKELSSNGFMSNITLLLVRFSQPFLDISYKKIDKIDANYFNNPSLFIDLSGETRLNSDFKEADAFYDKNRKTADSKPNFISDCFFLTLTYLHYGLGGTLSFEEKMGSEIKALKEEIEKVKKIAANHDVFARFITAQLSKMEKALKTTESLRFALQGFFAHRSLQLEVFDFICGASTFLIRVVDPEHEFPFKQIKLPLIPDQIGVENVDNADFLRAHAPVPFKYYPEFVVEGPVNYSLYISKYQTSPIFRNPRLGSFVEFTTMVLRCPELVSNPHLKGKLVQLLSVGAMPLTDNSPGFMMDIFEHDELVNKNLLYALLDFYVIVEKTGSSSQFYDKFNSRYSISIILEELYYKIPSYKNQLIWQSQNNADFFVRFVARMLNDLTFLLDEGLSNLAEVHNIQNELDNRARGAPPTREEEDKELQTRLASASRQAKSSCGLADKSMKLFEIYSKDIPAAFVTPEIVYRLASMLNYNLESLVGPKCGELKVKDPQSYSFNPKDLLKALTTVYINLSEQSEFISAVAKDERSFNRNLFVRAVDILGRKTGLASPEFIEKLLNFANKAEEQRKADEEEDLEYGDVPDEFLDPLMYTIMKDPVILPASKMNIDRSTIKAHLLSDSTDPFNRMPLKLEDVTPNEELRQKILCFKKQKKEEAKHKASE | soluble
5 | GSHMASMTGGQQMGRGSMNTEELQVAAFEIILNSGNARSIVHEAFDAMREKNYILAEQKLQEANDELLKAHQAQTDLLQEYASGTEIKIEIIMVHAQDHLMTTMTLREVAIEMLELYKKS | soluble
6 | GSHMASTISVKDENGTVKVPKDAKRIVVLEYSFADALAALDVKPVGIADDGKKKRIIKPVREKIGDYTSVGTRKQPNLEEISKLKPDLIIADSSRHKGINKELNKIAPTLSLKSFDGDYKQNINSFKTIAKALNKEKEGEKRLAEHDKLINKYKDEIKFDRNQKVLPAVVAKAGLLAHPNYSYVGQFLNELGFKNALSDDVTKGLSKYLKGPYLQLDTEHLADLNPERMIIMTDHAKKDSAEFKKLQEDATWKKLNAVKNNRVDIVDRDVWARSRGLISSEEMAKELVELSKKEQK | soluble
7 | GSHMIAPLSVKDNDKWVDTHVGKTTEIHLKGNPTTGYMWTRVGFVGKDVLSDEILEVVCKYTPTPSSTPMVGVGGIYVVLVKPRKRGHHTLELVYTRPFEGIKPENERYTLHLNVK | soluble
8 | GSHMNKKSFQCSNCSVTETIRWRNIRSKEGIQCNACFIYQRKYNKTRPVTAVNKYQKRKLKVQETNGVDSF | soluble
9 | GSHMRSEFASGNTYALYVRDTLQPGMRVRMLDDYEEISAGDEGEFRQSNNGVPPVQVFWESTGRTYWVHWHMLEILGFEEDIEDMVEADEYQGAVASRVLGRALP | soluble
10 | GSHMSQVEKDNTQALIPTMNMARQLSEASAWELFAAQNLTSADNEKMWQAQGRMLTAQSLKINALLQALREQGFDTTAIEQQEQEISRSLRQQGELVGQRLQLRQQQQQLSQQIVAAADEIARLAQGQANNATTSAGATQAGIYDLIEQDQRQAAESALDRLIDIDLEYVNQMNELRLSALRVQQMVMNLGLEQIQKNAPTLEKQLNNAVKILQRRQIRIEDPGVRAQVATTLTTVSQYSDLLALYQQDSEISNHLQTLAQNNIAQFAQFSSEVSQLVDTIELRNQHGLA | soluble
11 | GSHMTGPVTKEDLGRATWTFLHTLAAQYPEKPTRQQKKDVKELMTILSRMYPCRECADHFKEILRSNPAQAGSQEEFSQWLCHVHNTVNRSLGKLVFPCERVDARWGKLECEQKSCDLHGTSMDF | soluble
12 | GSHMVGPTYSTAVLNCLKNLDLWCFDVFSLNQAADDHALRTIVFELLTRHNLISRFKIPTVFLMSFLDALETGYGKYKNPYHNQIHAADVTQTVHCFLLRTGMVHCLSEIELLAIIFAAAIHDYEHTGTTNSFHIQTKSECAIVYNDRSVLENHHISSVFRLMQDDEMNIFINLTKDEFVELRALVIEMVLATDMSCHFQQVKTMKTALQQLERIDKPKALSLLLHAADISHPTKQWLVHSRWTKALMEEFFRQGDKEAELGLPFSPLCDRTSTLVAQSQIGFIDFIVEPTFSVLTDVAEKSVQPLADEDSKSKNQPSFQWRQPSLDVEVGDPNPDVVSFRSTWVKRIQENKQKWKERAASGITN | soluble
13 | GSHMYEYPVFSHVQAGMFSPELRTFTKGDAERWVSTTKKASDSAFWLEVEGNSMTTPTGSKTSFPDGMLILVDPEQAVEPGDFCIARLGGDEFTFKKLIRDSGQVFLQPLNPQYPMIPCNESCSVVGKVIASQ | soluble
14 | GSHNLACPTPKEDGLAQQQTQLNLRSLLVNPEGPTLMRLNSVQSSERPLFLVHPIEGSTTVFHSLASRLSIPTYGLQCTRAAPLDSIHSLAAYYIDCIRQVQPEGPYRVAGYSYGACVAFEMCSQLQAQQSPAPTHNSLFLFDGSPTYVLAYTQSYRAKLTPGCEAEAETEAICFFVQQFTDMEHNRVLEALLPLKGLEERVAAAVDLIIKSHQGLDRQELSFAARSFYYKLRAAEQYTPKAKYHGNVMLLRAKTGGAYGEDLGADYNLSQVCDGKVSVHVIEGDHRTLLEGSGLESIISIIHSSLAEPRVSVREG | soluble
15 | GSKGDSKETRLTLMEEVLLLGLKDREGYTSFWNDCISSGLRGCMLIELALRGRLQLEACGMRRKSLLTRKVICKSDAPTGDVLLDEALKHVKETQPPETVQNWIELLSGETWNPLKLHYQLRNVRERLAKNLVEKGVLTTEKQNFLLFDMTTHPLTNNNIKQRLIKKVQEAVLDKWVNDPHRMDRRLLALIYLAHASDVLENAFAPLLDEQYDLATKRVRQLLDLDPEVECLKANTNEVLWAVVAAFTK | soluble
16 | GSKKHSVLHLVPVNITSKADSDVTEVMWQPVLRRGRGLEAQGDIVRVWDTGIYLLYSQVLFHDVTFTMGQVVSREGQGRRETLFRCIRSMPSDPDRAYNSCYSAGVFHLHQGDIITVKIPRANAKLSLSPHGTFLGFVKL | soluble
17 | GSKKRQRFVDKNGRCNVQHGNLGSERAETLMFSEHAVISMRDGKLTLMFRVGNLRNSHMVEAQIRCKLLKSRQTPEGEFLPLDQLELDVGFSTGADQLFLVSPLTICHVIDAKSPFYDLSQRSMQTEQFEVVVILEGIVETTGMTCQARTSYTEDEVLWGHRFFPVISLEEGFFKVDYSQFHATFEVPTPPYSVKEQEEMLLMSSPL | soluble
18 | GSLYKMSSINADFAFNLYRRFTVETPDKNIFFSPVSISAALVMLSFGACCSTQTEIVETLGFNLTDTPMVEIQHGFQHLICSLNFPKKELELQIGNALFIGKHLKPLAKFLNDVKTLYETEVFSTDFSNISAAKQEINSHVEMQTKGKVVGLIQDLKPNTIMVLVNYIHFKAQWANPFDPSKTEDSSSFLIDKTTTVQVPMMHQMEQYYHLVDMELNCTVLQMDYSKNALALFVLPKEGQMESVEAAMSSKTLKKWNRLLQKGWVDLFVPKFSISATYDLGATLLKMGIQHAYSENADFSGLTEDNGLKLSNAAHKAVLHIGEKGTEAAAVPEVELSDQPENTFLHPIIQIDRSFMLLILERSTRSILFLGKVVNPTEA | soluble
19 | GSMAGWQSYVDNLMCDGCCQEAAIVGYCDAKYVWAATAGGVFQSITPAEIDVIIGKDREGFFTNGLTLGGKKCSVIRDSLYVDSDCTMDIRTKSQGGEPTYNVAVGRAGRVLVFVMGKEGVHGGGLNKKAYSMAKYLRDSGF | soluble
20 | GSMKKWSDTEVFEMLKRMYARVYGLVQGVGFRKFVQIHAIRLGIKGYAKNLPDGSVEVVAEGYEEALSKLLERIKQGPPAAEVEKVDYSFSEYKGEFEDFETY | soluble
21 | GSMSSFLGKWKLSESHNFDAVMSKLGVSWATRQIGNTVTPTVTFTMDGDKMTMLTESTFKNLSCTFKFGEEFDEKTSDGRNVKSVVEKNSESKLTQTQVDPKNTTVIVREVDGDTMKTTVTVGDVTAIRNYKRLS | soluble
22 | GSNSLMERIHEQIKKGELALFYLQEQINHFEEKPTKEMKDKIVAEMDTIIAMIDGVRGVLDRLMQRKDLDIFEQYNLEMAKKSGDILERDLKKEEARVKKIEV | soluble
23 | GSPAAAPPTLPPYFMKGSIIQLANGELKKVEDLKTEDFIQSAEISNDLKIDSSTVERIEDSHSPGVAVIQFAVGEHRAQVSVEVLVEYPFFVFGQGWSSCCPERTSQLFDLPCSKLSVGDVCISLTLKNLKNG | soluble
